Test [1] addresses DENV1 envelope (E) glycoprotein, strain Nauru/West Pac/1974 (Dengue virus serotype 1, UniProt P17763). Description: cell-based or functional assay.
The target in test [2] is DENV3 envelope (E) glycoprotein, wildtype DENV3 (strain not named at the place) (Dengue virus serotype 3).
The target in test [3] is DENV3 envelope (E) glycoprotein, strain Phillippines/16562/1964 (Dengue virus serotype 3). Description: live-virus capture ELISA.

A value given as a limit tells only on which side of the number the result lay.

B1: DENV-144 (antibody, V domains shown)
VH: QVQLQESGPGLVKPSETLSLTCTVSGASISSYSWSWIRQPAGRGLEWLGRIYPSGNTNYSPSLKSRLTMSLDTSKNQFSMKLTSVSAADTAVYYCARDREQWPLYYGMDVWGQGTLVTVSS
VL: EIVLTQSPAILSLSPGDRATLSCRASQSVFTYLAWYQHKPGQAPRLLIYDASNRASGIPARFSGSGSGTDFTLTISSLEPEDFAVYYCQQRTKWPLAFGGGTKVEIK
Take B1: the “FRNT EC50, Vero-81 (WUSTL)” value in test [1] came out at 0.329 µg/mL.

B2: DENV-419 (antibody, V domains shown)
VH: EMQLQESGPRLVKPSQTLSLTCTVSGGSTSSGGYYWSWFRQYPEKGLEWIGYIFSSVTTYYNPPLKSRVTISVDTSKNQFSLKLSSVTAADTAVYYCARSLHYYQSSGFLYWGRGIPVTVSA
VL: EIVLTQSPATLSLSPGDRATLSCRASQTVGDSLAWYQQKPGQAPRLLIYDVSNRATGIPARFSGSGSGTDFTLTISSLEPEDFAVYYCQQRASFVTFGRGTKVDIK
In general, EC50 refers to the concentration giving half of the maximal effect. On to B2, for which the FRNT EC50, Vero-81 in test [2] was under 0.035 µg/mL. Also, the EC50 in test [3] stood at 0.0444 µg/mL.
